Data published in patent US9745607B2, “Methods of producing 6-carbon chemicals using 2,6-diaminopimelate as precursor to 2-aminopimelate” (INVISTA North America S.á r.l., priority 2014, dated 2017).

Legend:
Assay type in all cases: biochemical
[1] = ω-transaminase enzyme activity assay, reverse direction (6-aminohexanoate to adipate semialdehyde); details: cell free extract, 10 mM 6-aminohexanoate, 10 mM pyruvate, pH 7.5, 25° C., 24 h, RP-HPLC, against the empty vector control
Experimental: (§1) A nucleotide sequence encoding a His-tag was added to the genes from Chromobacterium violaceum, Pseudomonas aeruginosa, Pseudomonas syringae, Rhodobacter sphaeroides, and Vibrio Fluvialis encoding the ω-transaminases of SEQ ID NOs: 8, 9, 10, 11 and 13, respectively (see FIG. 20E and FIG. 20F) such that N-terminal HIS tagged ω-transaminases could be produced. Each of the resulting modified genes was cloned into a pET21a expression vector under control of the T7 promoter and each expression vector was transformed into a BL21[DE3] E. coli host. The resulting recombinant E. coli strains were cultivated at 37° C. in a 250 mL shake flask culture containing 50 mL LB media and antibiotic selection pressure, with shaking at 230 rpm. Each culture was induced overnight at 16° C. using 1 mM IPTG.
(§2) The pellet from each induced shake flask culture was harvested via centrifugation. Each pellet was resuspended and lysed via sonication. The cell debris was separated from the supernatant via centrifugation and the cell free extract was used immediately in enzyme activity assays.
Enzyme activity assays in the reverse direction (i.e., 6-aminohexanoate to adipate semialdehyde) were performed in a buffer composed of a final concentration of 50 mM HEPES buffer (pH=7.5), 10 mM 6-aminohexanoate, 10 mM pyruvate and 100 μM pyridoxyl 5′ phosphate. Each enzyme activity assay reaction was initiated by adding cell free extract of the ω-transaminase gene product or the empty vector control to the assay buffer containing the 6-aminohexanoate and incubated at 25° C. for 24 h, with shaking at 250 rpm. The formation of L-alanine from pyruvate was quantified via RP-HPLC.

[2] = ω-transaminase enzyme activity assay, forward direction (adipate semialdehyde to 6-aminohexanoate); details: cell free extract, 10 mM adipate semialdehyde, 10 mM L-alanine, pH 7.5, 25° C., 4 h, RP-HPLC, against the empty vector control
Experimental: as §1, §2
Enzyme activity in the forward direction (i.e., adipate semialdehyde to 6-aminohexanoate) was confirmed for the transaminases of SEQ ID NO 8, SEQ ID NO 9, SEQ ID NO 10, SEQ ID NO 11 and SEQ ID NO 13. Enzyme activity assays were performed in a buffer composed of a final concentration of 50 mM HEPES buffer (pH=7.5), 10 mM adipate semialdehyde, 10 mM L-alanine and 100 μM pyridoxyl 5′ phosphate. Each enzyme activity assay reaction was initiated by adding a cell free extract of the ω-transaminase gene product or the empty vector control to the assay buffer containing the adipate semialdehyde and incubated at 25° C. for 4 h, with shaking at 250 rpm. The formation of pyruvate was quantified via RP-HPLC.

[3] = carboxylate reductase enzyme activity assay (adipate semialdehyde to hexanedial); details: purified enzyme enhanced by the gene product of sfp, 2 mM adipate semialdehyde, pH 7.5, room temperature, 20 min, against the empty vector control
Experimental: The N-terminal His-tagged carboxylate reductase of SEQ ID NO 7 (see Example 2 and FIG. 20E) was assayed using adipate semialdehyde as substrate. The enzyme activity assay was performed in triplicate in a buffer composed of a final concentration of 50 mM HEPES buffer (pH=7.5), 2 mM adipate semialdehyde, 10 mM MgCl2, 1 mM ATP and 1 mM NADPH. The enzyme activity assay reaction was initiated by adding purified carboxylate reductase and phosphopantetheine transferase or the empty vector control to the assay buffer containing the adipate semialdehyde and then incubated at room temperature for 20 min. The consumption of NADPH was monitored by absorbance at 340 nm.

Row | Molecule | ω-transaminase activity: acceptance of 6-aminohexanoate as substrate (formation of L-alanine from pyruvate) [1] | ω-transaminase activity: acceptance of adipate semialdehyde as substrate (formation of pyruvate from L-alanine) [2] | carboxylate reductase activity: acceptance of adipate semialdehyde as substrate (consumption of NADPH, absorbance at 340 nm) [3]
1 | SEQ ID NO 11: Rhodobacter sphaeroides ω-transaminase, N-terminal HIS tagged | accepted 6-aminohexanote as substrate | accepted adipate semialdehyde as substrate | 
2 | SEQ ID NO 8: Chromobacterium violaceum ω-transaminase, N-terminal HIS tagged (protein, listed as Chromobacterium violaceum, N-terminal His tag, Chromobacterium violaceum ω-transaminase, N-terminal HIS tagged) MQKQRTTSQWRELDAAHHLHPFTDTASLNQAGARVMTRGEGVYLWDSEGNKIIDGMAGLWCVNVGYGRKDFAEAARRQMEELPFYNTFFKTTHPAVVELSSLLAEVTPAGFDRVFYTNSGSESVDTMIRMVRRYWDVQGKPEKKTLIGRWNGYHGSTIGGASLGGMKYMHEQGDLPIPGMAHIEQPWWYKHGKDMTPDEFGVVAARWLEEKILEIGADKVAAFVGEPIQGAGGVIVPPATYWPEIERICRKYDVLLVADEVICGFGRTGEWFGHQHFGFQPDLFTAAKGLSSGYLPIGAVFVGKRVAEGLIAGGDFNHGFTYSGHPVCAAVAHANVAALRDEGIVQRVKDDIGPYMQKRWRETFSRFEHVDDVRGVGMVQAFTLVKNKAKRELFPDFGEIGTLCRDIFFRNNLIMRACGDHIVSAPPLVMTRAEVDEMLAVAERCLEEFEQTLKARGLA | accepted 6-aminohexanote as substrate | accepted adipate semialdehyde as substrate | 
3 | SEQ ID NO 10: Pseudomonas syringae ω-transaminase, N-terminal HIS tagged (protein, listed as Pseudomonas syringae, N-terminal His tag, Pseudomonas syringae ω-transaminase, N-terminal HIS tagged) MSANNPQTLEWQALSSEHHLAPFSDYKQLKEKGPRIITRAEGVYLWDSEGNKILDGMSGLWCVAIGYGREELADAASKQMRELPYYNLFFQTAHPPVLELAKAISDIAPEGMNHVFFTGSGSEGNDTMLRMVRHYWALKGQPNKKTIISRVNGYHGSTVAGASLGGMTYMHEQGDLPIPGVVHIPQPYWFGEGGDMTPDEFGIWAAEQLEKKILELGVENVGAFIAEPIQGAGGVIVPPDSYWPKIKEILSRYDILFAADEVICGFGRTSEWFGSDFYGLRPDMMTIAKGLTSGYVPMGGLIVRDEIVAVLNEGGDFNHGFTYSGHPVAAAVALENIRILREEKIVERVRSETAPYLQKRLRELSDHPLVGEVRGVGLLGAIELVKDKTTRERYTDKGAGMICRTFCFDNGLIMRAVGDTMIIAPPLVISFAQIDELVEKARTCLDLTLAVLQG | accepted 6-aminohexanote as substrate | accepted adipate semialdehyde as substrate | 
4 | SEQ ID NO 13: Vibrio fluvialis ω-transaminase, N-terminal HIS tagged (protein, listed as Vibrio fluvialis, N-terminal His tag, Vibrio fluvialis ω-transaminase, N-terminal HIS tagged) MNKPQSWEARAETYSLYGFTDMPSLHQRGTVVVTHGEGPYIVDVNGRRYLDANSGLWNMVAGFDHKGLIDAAKAQYERFPGYHAFFGRMSDQTVMLSEKLVEVSPFDSGRVFYTNSGSEANDTMVKMLWFLHAAEGKPQKRKILTRWNAYHGVTAVSASMTGKPYNSVFGLPLPGFVHLTCPHYWRYGEEGETEEQFVARLARELEETIQREGADTIAGFFAEPVMGAGGVIPPAKGYFQAILPILRKYDIPVISDEVICGFGRTGNTWGCVTYDFTPDAIISSKNLTAGFFPMGAVILGPELSKRLETAIEAIEEFPHGFTASGHPVGCAIALKAIDVVMNEGLAENVRRLAPRFEERLKHIAERPNIGEYRGIGFMWALEAVKDKASKTPFDGNLSVSERIANTCTDLGLICRPLGQSVVLCPPFILTEAQMDEMFDKLEKALDKVFAEVA | accepted 6-aminohexanote as substrate | accepted adipate semialdehyde as substrate | 
5 | SEQ ID NO 9: Pseudomonas aeruginosa ω-transaminase, N-terminal HIS tagged (protein, listed as Pseudomonas aeruginosa, N-terminal His tag, Pseudomonas aeruginosa ω-transaminase, N-terminal HIS tagged) MNARLHATSPLGDADLVRADQAHYMHGYHVFDDHRVNGSLNIAAGDGAYIYDTAGNRYLDAVGGMWCTNIGLGREEMARTVAEQTRLLAYSNPFCDMANPRAIELCRKLAELAPGDLDHVFLTTGGSTAVDTAIRLMHYYQNCRGKRAKKHVITRINAYHGSTFLGMSLGGKSADRPAEFDFLDERIHHLACPYYYRAPEGLGEAEFLDGLVDEFERKILELGADRVGAFISEPVFGSGGVIVPPAGYHRRMWELCQRYDVLYISDEVVTSFGRLGHFFASQAVFGVQPDIILTAKGLTSGYQPLGACIFSRRIWEVIAEPDKGRCFSHGFTYSGHPVACAAALKNIEIIEREGLLAHADEVGRYFEERLQSLRDLPIVGDVRGMRFMACVEFVADKASKALFPESLNIGEWVHLRAQKRGLLVRPIVHLNVMSPPLILTREQVDTVVRVLRESIEETVEDLVRAGHR |  | accepted adipate semialdehyde as substrate | 
6 | SEQ ID NO 7: Segniliparus rotundus carboxylate reductase, N-terminal HIS tagged (protein, listed as Segniliparus rotundus, N-terminal His tag, Segniliparus rotundus carboxylate reductase, N-terminal HIS tagged) MTQSHTQGPQASAAHSRLARRAAELLATDPQAAATLPDPEVVRQATRPGLRLAERVDAILSGYADRPALGQRSFQTVKDPITGRSSVELLPTFDTITYRELRERATAIASDLAHHPQAPAKPGDFLASIGFISVDYVAIDIAGVFAGLTAVPLQTGATLATLTAITAETAPTLFAASIEHLPTAVDAVLATPSVRRLLVFDYRAGSDEDREAVEAAKRKIADAGSSVLVDVLDEVIARGKSAPKAPLPPATDAGDDSLSLLIYTSGSTGTPKGAMYPERNVAHFWGGVWAAAFDEDAAPPVPAINITFLPLSHVASRLSLMPTLARGGLMHFVAKSDLSTLFEDLKLARPTNLFLVPRVVEMLYQHYQSELDRRGVQDGTREAEAVKDDLRTGLLGGRILTAGFGSAPLSAELAGFIESLLQIHLVDGYGSTEAGPVWRDGYLVKPPVTDYKLIDVPELGYFSTDSPHPRGELAIKTQTILPGYYKRPETTAEVFDEDGFYLTGDVVAQIGPEQFAYVDRRKNVLKLSQGEFVTLAKLEAAYSSSPLVRQLFVYGSSERSYLLAVIVPTPDALKKFGVGEAAKAALGESLQKIARDEGLQSYEVPRDFIIETDPFTVENGLLSDARKSLRPKLKEHYGERLEAMYKELADGQANELRDIRRGVQQRPTLETVRRAAAAMLGASAAEIKPDAHFTDLGGDSLSALTFSNFLHDLFEVDVPVGVIVSAANTLGSVAEHIDAQLAGGRARPTFATVHGKGSTTIKASDLTLDKFIDEQTLEAAKHLPKPADPPRTVLLTGANGWLGRFLALEWLERLAPAGGKLITIVRGKDAAQAKARLDAAYESGDPKLAGHYQDLAATTLEVLAGDFSEPRLGLDEATWNRLADEVDFISHPGALVNHVLPYNQLFGPNVAGVAEIIKLAITTRIKPVTYLSTVAVAAGVEPSALDEDGDIRTVSAERSVDEGYANGYGNSKWGGEVLLREAHDRTGLPVRVFRSDMILAHQKYTGQVNATDQFTRLVQSLLATGLAPKSFYELDAQGNRQRAHYDGIPVDFTAESITTLGGDGLEGYRSYNVFNPHRDGVGLDEFVDWLIEAGHPITRIDDYDQWLSRFETSLRGLPESKRQASVLPLLHAFARPGPAVDGSPFRNTVFRTDVQKAKIGAEHDIPHLGKALVLKYADDIKQLGLL |  |  | accepted adipate semialdehyde as substrate
